Measurements from patent publication US20240117011A1.

Biological target: full-length SARS-CoV-2 spike, WA-1 / Wuhan-1 (S wt) (SARS-CoV-2) (UniProt P0DTC2)
Experiment: cell-based or functional assay

LY-CoV555 (antibody)
pseudotyped virus neutralization IC50: 0.0071 µg/mL | pseudotyped virus neutralization IC80: 0.0357 µg/mL
